In the Immune Epitope Database (IEDB):
Values belong to the sequence of their own block, whether it stands above or below them.

Legend:
HLA-B*44:02 [1] = test: IEDB peptide-MHC binding, purified MHC/competitive/radioactivity; filed as Kd, often an IC50 or EC50 that approximates it; ≥ and ≤ were set here for values at or beyond the usual limits of such assays; settings: source organism: Dengue virus 1 Brazil/97-11/1997
HLA-B*58:01 [2] = test: as above
HLA-A*01:01 = test: IEDB peptide-MHC binding, purified MHC/direct/fluorescence; filed as Kd, often an IC50 or EC50 that approximates it; ≥ and ≤ were set here for values at or beyond the usual limits of such assays
HLA-A*02:01 = test: as above
HLA-A*03:01 [3] = test: as above
HLA-A*11:01 = test: as above
HLA-A*24:03 [4] = test: as above
HLA-A*26:01 [5] = test: as above
HLA-A*30:01 = test: as above
HLA-A*31:01 = test: as above
HLA-A*69:01 [6] = test: as above
HLA-B*07:02 = test: as above
HLA-B*08:01 = test: as above
HLA-B*15:01 [7] = test: as above
HLA-B*27:05 = test: as above
HLA-B*35:01 = test: as above; settings: source organism: Escherichia coli O157:H7
HLA-B*40:01 = test: as above
HLA-B*44:02 [8] = test: as above
HLA-B*58:01 [9] = test: as above
HLA-B*18:01 [10] = test: as above; settings: source organism: West Nile virus
HLA-B*46:01 [11] = test: as above; settings: source organism: West Nile virus
HLA-B*48:01 = test: as above; settings: source organism: West Nile virus
HLA-B*57:01 [12] = test: as above; settings: source organism: West Nile virus
HLA-A*26:01 [13] = test: IEDB peptide-MHC binding, purified MHC/competitive/fluorescence; filed as Kd, often an IC50 or EC50 that approximates it; ≥ and ≤ were set here for values at or beyond the usual limits of such assays
HLA-B*39:01 = test: as above
HLA-A*02:19 = test: as above; settings: source organism: Mycobacterium tuberculosis variant bovis BCG str. Pasteur 1173P2
HLA-A*03:01 [14] = test: as above; settings: source organism: Mycobacterium tuberculosis variant bovis BCG str. Pasteur 1173P2
HLA-A*24:03 [15] = test: as above; settings: source organism: Mycobacterium tuberculosis variant bovis BCG str. Pasteur 1173P2
HLA-A*29:02 = test: as above; settings: source organism: Mycobacterium tuberculosis variant bovis BCG str. Pasteur 1173P2
HLA-A*68:02 = test: as above; settings: source organism: Mycobacterium tuberculosis variant bovis BCG str. Pasteur 1173P2
HLA-A*69:01 [16] = test: as above; settings: source organism: Mycobacterium tuberculosis variant bovis BCG str. Pasteur 1173P2
HLA-B*15:01 [17] = test: as above; settings: source organism: Mycobacterium tuberculosis variant bovis BCG str. Pasteur 1173P2
HLA-B*15:17 = test: as above; settings: source organism: Mycobacterium tuberculosis variant bovis BCG str. Pasteur 1173P2
HLA-B*18:01 [18] = test: as above; settings: source organism: Mycobacterium tuberculosis variant bovis BCG str. Pasteur 1173P2
HLA-B*27:03 = test: as above; settings: source organism: Mycobacterium tuberculosis variant bovis BCG str. Pasteur 1173P2
HLA-B*46:01 [19] = test: as above; settings: source organism: Mycobacterium tuberculosis variant bovis BCG str. Pasteur 1173P2
HLA-B*51:01 = test: as above; settings: source organism: Mycobacterium tuberculosis variant bovis BCG str. Pasteur 1173P2
HLA-B*57:01 [20] = test: as above; settings: source organism: Mycobacterium tuberculosis variant bovis BCG str. Pasteur 1173P2
[21] = source organism: Escherichia coli O157:H7
[22] = source organism: West Nile virus
[23] = source organism: Pseudomonas putida
[24] = source organism: Pseudomonas aeruginosa
[25] = source organism: Mycobacterium tuberculosis variant bovis BCG str. Pasteur 1173P2
[26] = source organism: Giardia lamblia ATCC 50803
[27] = source organism: Yersinia pestis

Sequence: ERSWNSGYDW
- Kd (HLA-B*44:02 [1]): 0.856 µM
- Kd (HLA-B*58:01 [2]; source organism: Dengue virus 1 Brazil/97-11/1997): 0.0956 µM

- Kd (HLA-A*01:01; [21]): 0.535 µM
- Kd (HLA-A*02:01; [21]): ≥ 20 µM
- Kd (HLA-A*03:01 [3]; [21]): 3.25 µM
- Kd (HLA-A*11:01; [21]): 2.56 µM
- Kd (HLA-A*24:03 [4]; [21]): ≥ 20 µM
- Kd (HLA-A*26:01 [5]; [21]): 0.205 µM
- Kd (HLA-A*30:01; [21]): 2.13 µM
- Kd (HLA-A*31:01; [21]): ≥ 20 µM
- Kd (HLA-A*69:01 [6]; [21]): ≥ 20 µM
- Kd (HLA-B*07:02; [21]): ≥ 20 µM
- Kd (HLA-B*08:01; [21]): ≥ 20 µM
- Kd (HLA-B*15:01 [7]; [21]): 0.108 µM
- Kd (HLA-B*27:05; [21]): ≥ 20 µM
- Kd (HLA-B*35:01): 0.861 µM
- Kd (HLA-B*40:01; [21]): ≥ 20 µM
- Kd (HLA-B*44:02 [8]; [21]): ≥ 20 µM
- Kd (HLA-B*58:01 [9]; [21]): 4.05 µM
Sequence: ITAGYNRYY

Sequence: KHVQRIETW
- Kd (HLA-B*58:01 [2]; source organism: Dengue virus 2 Jamaica/1409/1983): 0.145 µM

Sequence: LASAILNAHK
- Kd (HLA-B*58:01 [2]; source organism: Dengue virus 4 Dominica/814669/1981): 3.46 µM

Sequence: LYAVTTAVL
- Kd (HLA-A*01:01; [22]): ≥ 20 µM
- Kd (HLA-A*03:01 [3]; [22]): ≥ 20 µM
- Kd (HLA-A*30:01; source organism: West Nile virus strain PTRoxo): ≥ 20 µM
- Kd (HLA-A*31:01; [22]): ≥ 20 µM
- Kd (HLA-A*69:01 [6]; [22]): ≥ 20 µM
- Kd (HLA-B*15:01 [7]; [22]): ≥ 20 µM
- Kd (HLA-B*18:01 [10]): ≥ 20 µM
- Kd (HLA-B*27:05; [22]): ≥ 20 µM
- Kd (HLA-B*40:01; [22]): ≥ 20 µM
- Kd (HLA-B*44:02 [8]; [22]): ≥ 20 µM
- Kd (HLA-B*46:01 [11]): ≥ 20 µM
- Kd (HLA-B*48:01): ≥ 20 µM
- Kd (HLA-B*57:01 [12]): ≥ 20 µM
- Kd (HLA-B*58:01 [9]; [22]): ≥ 20 µM
- Kd (HLA-A*26:01 [13]; [22]): ≥ 20 µM
- Kd (HLA-B*39:01; [22]): 0.459 µM

- Kd (HLA-A*01:01; [23]): ≥ 20 µM
- Kd (HLA-A*02:01; [23]): ≥ 20 µM
- Kd (HLA-A*03:01 [3]; [23]): ≥ 20 µM
- Kd (HLA-A*11:01; [24]): 0.0673 µM
- Kd (HLA-A*24:03 [4]; [23]): ≥ 20 µM
- Kd (HLA-A*26:01 [5]; [23]): ≥ 20 µM
- Kd (HLA-A*30:01; [24]): 2.1 µM
- Kd (HLA-A*69:01 [6]; [23]): ≥ 20 µM
- Kd (HLA-B*07:02; [23]): ≥ 20 µM
- Kd (HLA-B*08:01; [23]): ≥ 20 µM
- Kd (HLA-B*15:01 [7]; [23]): ≥ 20 µM
- Kd (HLA-B*27:05; [23]): ≥ 20 µM
- Kd (HLA-B*40:01; [23]): ≥ 20 µM
- Kd (HLA-B*58:01 [9]; [23]): ≥ 20 µM
Sequence: NWDWGVFFK

Sequence: RLAPEPVYT
- Kd (HLA-A*02:19): 0.0932 µM
- Kd (HLA-A*03:01 [14]): ≥ 20 µM
- Kd (HLA-A*24:03 [15]): ≥ 20 µM
- Kd (HLA-A*26:01 [13]; [25]): ≥ 20 µM
- Kd (HLA-A*29:02): 3 µM
- Kd (HLA-A*68:02): ≥ 20 µM
- Kd (HLA-A*69:01 [16]): ≥ 20 µM
- Kd (HLA-B*15:01 [17]): ≥ 20 µM
- Kd (HLA-B*15:17): ≥ 20 µM
- Kd (HLA-B*18:01 [18]): ≥ 20 µM
- Kd (HLA-B*27:03): ≥ 20 µM
- Kd (HLA-B*39:01; [25]): ≥ 20 µM
- Kd (HLA-B*46:01 [19]): ≥ 20 µM
- Kd (HLA-B*51:01): ≥ 20 µM
- Kd (HLA-B*57:01 [20]): ≥ 20 µM

Sequence: TAAVLLLITH
- Kd (HLA-B*58:01 [2]; source organism: Dengue virus 3 Martinique/1243/1999): 0.751 µM

Sequence: TTIEDILPK
- Kd (HLA-A*01:01; [26]): ≥ 20 µM
- Kd (HLA-A*02:01; [26]): ≥ 20 µM
- Kd (HLA-A*03:01 [3]; [26]): 2.84 µM
- Kd (HLA-A*11:01; [26]): 0.0092 µM
- Kd (HLA-A*24:03 [4]; [26]): ≥ 20 µM
- Kd (HLA-A*26:01 [5]; [26]): 0.478 µM
- Kd (HLA-A*30:01; [26]): 0.471 µM
- Kd (HLA-A*31:01; [26]): 2.09 µM
- Kd (HLA-A*69:01 [6]; [26]): ≥ 20 µM
- Kd (HLA-B*07:02; [26]): ≥ 20 µM
- Kd (HLA-B*08:01; [26]): ≥ 20 µM
- Kd (HLA-B*15:01 [7]; [26]): ≥ 20 µM
- Kd (HLA-B*27:05; [26]): ≥ 20 µM
- Kd (HLA-B*40:01; [26]): ≥ 20 µM
- Kd (HLA-B*44:02 [8]; [26]): ≥ 20 µM
- Kd (HLA-B*58:01 [9]; [26]): ≥ 20 µM

Sequence: YGLGSTPLY
- Kd (HLA-A*01:01; [27]): 14.1 µM
- Kd (HLA-A*02:01; [27]): ≥ 20 µM
- Kd (HLA-A*03:01 [3]; [27]): ≥ 20 µM
- Kd (HLA-A*11:01; [27]): ≥ 20 µM
- Kd (HLA-A*26:01 [5]; [27]): 5.87 µM
- Kd (HLA-A*30:01; [27]): 3.59 µM
- Kd (HLA-A*31:01; [27]): ≥ 20 µM
- Kd (HLA-A*69:01 [6]; [27]): ≥ 20 µM
- Kd (HLA-B*07:02; [27]): ≥ 20 µM
- Kd (HLA-B*08:01; [27]): ≥ 20 µM
- Kd (HLA-B*15:01 [7]; [27]): 0.332 µM
- Kd (HLA-B*27:05; [27]): ≥ 20 µM
- Kd (HLA-B*40:01; [27]): ≥ 20 µM
- Kd (HLA-B*44:02 [8]; [27]): ≥ 20 µM
- Kd (HLA-B*58:01 [9]; [27]): 10.4 µM
